# Laboratory results: the RNAGym collection of RNA variant scans (doi:10.7554/elife.80360)
# B1: HDV Ribozyme (parent)
# chain: GGCCGGCAUGGUCCCAGCCUCCUCGCUGGCGCCGGCUGGGCAACAUUCCGAGGGGACCGUCCCCUCGGUAAUGGCGAAUGGGACCCA
# Variants of: B1
# Assay: self-cleavage, relative activity (ratio to wild type); higher = more cleavage; co-transcriptional
row,Variant,self-cleavage
1,GGCCGGCAUGGUCCCAGCCUCCUCGCUGGCGCCGGCUGGGCAACAUUCCGAGGGGACCGUCCCCUCGGUAAUGGCGAGUGGGACCCA [A78G],0.75
2,GGCCGGCAUGGUCCCAGCCUCCUCGCUGGCGCCGGCUGGGCAACAUUCCGAGGGGACCGUCCCCUCGGUAAUGGCGAACGGGAACCA [U79C C84A],0.462
3,GGCCGGCAUGGUCCCAGCCUCCUCGCUGGCGCCGGCUGGGCAACAUUCCGAGGGGACCGUCCCCUCGGUAAUGGCGUAUGGGAUCCA [A77U C84U],0.489
4,GGCCGGCAUGGUCCCAGCCUCCUCGCUGGCGCCGGCUGGGCAACAUUCCGAGGGGACCGUCCCCUCGGUAAUGGCGAAUCGGAGCCA [G80C C84G],0.163
5,GGCCGGCAUGGUCCCAGCCUCCUCGCUGGCGCCGGCUGGGCAACAUUCCGAGGGGACCGUCCCCUCGGUAAUGGCGAAUCGGAUCCA [G80C C84U],0.16
6,GGCCGGCAUGGUCCCAGCCUCCUCGCUGGCGCCGGCUGGGCAACAUUCCGAGGGGACCGUCCCCUCGGUAAUGGCGAAAUGGACCCA [U79A G80U],0.148
7,GGCCGGCAUGGUCCCAGCCUCCUCGCUGGCGCCGGCUGGGCAACAUUCCGAGGGGACCGUCCCCUCGGUAAUGGCGUAUGGGACCCG [A77U A87G],0.591
8,GGCCGGCAUGGUCCCAGCCUCCUCGCUGGCGCCGGCUGGGCAACAUUCCGAGGGGACCGUCCCCUCGGUAAUGGCGAGCGGGACCCA [A78G U79C],0.225
9,GGCCGGCAUGGUCCCAGCCUCCUCGCUGGCGCCGGCUGGGCAACAUUCCGAGGGGACCGUCCCCUCGGUAAUGGCGAAUUGGAUCCA [G80U C84U],0.164
10,GGCCGGCAUGGUCCCAGCCUCCUCGCUGGCGCCGGCUGGGCAACAUUCCGAGGGGACCGUCCCCUCGGUAAUGGCGAAUUGGAGCCA [G80U C84G],0.332
11,GGCCGGCAUGGUCCCAGCCUCCUCGCUGGCGCCGGCUGGGCAACAUUCCGAGGGGACCGUCCCCUCGGUAAUGGCGAUUGGGACCCU [A78U A87U],0.243
12,GGCCGGCAUGGUCCCAGCCUCCUCGCUGGCGCCGGCUGGGCAACAUUCCGAGGGGACCGUCCCCUCGGUAAUGGCGAACGGGACACA [U79C C85A],0.389
13,GGCCGGCAUGGUCCCAGCCUCCUCGCUGGCGCCGGCUGGGCAACAUUCCGAGGGGACCGUCCCCUCGGUAAUGGCGAACGGGACGCA [U79C C85G],0.287
14,GGCCGGCAUGGUCCCAGCCUCCUCGCUGGCGCCGGCUGGGCAACAUUCCGAGGGGACCGUCCCCUCGGUAAUGGCGAGUGGGACCCG [A78G A87G],0.658
15,GGCCGGCAUGGUCCCAGCCUCCUCGCUGGCGCCGGCUGGGCAACAUUCCGAGGGGACCGUCCCCUCGGUAAUGGCGAAAGGGACACA [U79A C85A],0.724
16,GGCCGGCAUGGUCCCAGCCUCCUCGCUGGCGCCGGCUGGGCAACAUUCCGAGGGGACCGUCCCCUCGGUAAUGGCGACAGGGACCCA [A78C U79A],0.0978

row,Variant,self-cleavage
1,GGCCGGCAUGGUCCCAGCCUCCUCGCUGGCGCCGGCUGGGCAACAUUCCGAGGGGACCGUCCCCUCGGUAAUGGCGGAUGGAACCCA [A77G G82A],0.364
2,GGCCGGCAUGGUCCCAGCCUCCUCGCUGGCGCCGGCUGGGCAACAUUCCGAGGGGACCGUCCCCUCGGUAAUGGCGGAUGGUACCCA [A77G G82U],0.277
3,GGCCGGCAUGGUCCCAGCCUCCUCGCUGGCGCCGGCUGGGCAACAUUCCGAGGGGACCGUCCCCUCGGUAAUGGCGAACGGGGCCCA [U79C A83G],0.253
4,GGCCGGCAUGGUCCCAGCCUCCUCGCUGGCGCCGGCUGGGCAACAUUCCGAGGGGACCGUCCCCUCGGUAAUGGCGAAAGGCACCCA [U79A G82C],0.0504
5,GGCCGGCAUGGUCCCAGCCUCCUCGCUGGCGCCGGCUGGGCAACAUUCCGAGGGGACCGUCCCCUCGGUAAUGGCGAAAGGUACCCA [U79A G82U],0.374
6,GGCCGGCAUGGUCCCAGCCUCCUCGCUGGCGCCGGCUGGGCAACAUUCCGAGGGGACCGUCCCCUCGGUAAUGGCGGAUAGGACCCA [A77G G80A],0.242
7,GGCCGGCAUGGUCCCAGCCUCCUCGCUGGCGCCGGCUGGGCAACAUUCCGAGGGGACCGUCCCCUCGGUAAUGGCGAAUAGGACCCG [G80A A87G],0.424
8,GGCCGGCAUGGUCCCAGCCUCCUCGCUGGCGCCGGCUGGGCAACAUUCCGAGGGGACCGUCCCCUCGGUAAUGGCGAAUUGGACCCU [G80U A87U],0.235
9,GGCCGGCAUGGUCCCAGCCUCCUCGCUGGCGCCGGCUGGGCAACAUUCCGAGGGGACCGUCCCCUCGGUAAUGGCGAAUCGGACCUA [G80C C86U],0.3
10,GGCCGGCAUGGUCCCAGCCUCCUCGCUGGCGCCGGCUGGGCAACAUUCCGAGGGGACCGUCCCCUCGGUAAUGGCGAAUCGGACCAA [G80C C86A],0.213
11,GGCCGGCAUGGUCCCAGCCUCCUCGCUGGCGCCGGCUGGGCAACAUUCCGAGGGGACCGUCCCCUCGGUAAUGGCGACUGCGACCCA [A78C G81C],0.0665
12,GGCCGGCAUGGUCCCAGCCUCCUCGCUGGCGCCGGCUGGGCAACAUUCCGAGGGGACCGUCCCCUCGGUAAUGGCGACUGUGACCCA [A78C G81U],0.128
13,GGCCGGCAUGGUCCCAGCCUCCUCGCUGGCGCCGGCUGGGCAACAUUCCGAGGGGACCGUCCCCUCGGUAAUGGCGAUUGCGACCCA [A78U G81C],0.213
14,GGCCGGCAUGGUCCCAGCCUCCUCGCUGGCGCCGGCUGGGCAACAUUCCGAGGGGACCGUCCCCUCGGUAAUGGCGUAGGGGACCCA [A77U U79G],0.161
15,GGCCGGCAUGGUCCCAGCCUCCUCGCUGGCGCCGGCUGGGCAACAUUCCGAGGGGACCGUCCCCUCGGUAAUGGCGAUUGGGAUCCA [A78U C84U],0.252
16,GGCCGGCAUGGUCCCAGCCUCCUCGCUGGCGCCGGCUGGGCAACAUUCCGAGGGGACCGUCCCCUCGGUAAUGGCGAGUGGGAGCCA [A78G C84G],0.185
